Source: patent US20130244255A1 (published 2013)
Several values for one entry are separate records, joined by “and”; a condition that tells them apart may be missing. Identical values can stand only once.

What was measured:
[1] = molecular target: T1, GPNMB (CG56972) as expressed by human cell lines (human, UniProt Q14956 23-492); assay: cell-based or functional assay
T1 sequence: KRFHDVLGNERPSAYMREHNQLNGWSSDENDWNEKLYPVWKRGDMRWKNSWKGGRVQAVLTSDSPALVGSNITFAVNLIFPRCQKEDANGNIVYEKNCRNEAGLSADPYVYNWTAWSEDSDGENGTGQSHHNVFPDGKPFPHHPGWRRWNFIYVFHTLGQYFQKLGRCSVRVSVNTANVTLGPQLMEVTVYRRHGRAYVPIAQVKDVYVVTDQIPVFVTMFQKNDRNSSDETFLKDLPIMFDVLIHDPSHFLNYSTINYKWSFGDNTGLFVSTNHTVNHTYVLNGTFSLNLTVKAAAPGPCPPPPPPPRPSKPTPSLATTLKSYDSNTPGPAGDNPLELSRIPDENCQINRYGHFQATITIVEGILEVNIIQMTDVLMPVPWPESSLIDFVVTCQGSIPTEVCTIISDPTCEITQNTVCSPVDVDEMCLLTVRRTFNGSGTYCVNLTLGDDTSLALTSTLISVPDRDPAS

[2] = molecular target: T1, GPNMB (CG56972) as expressed by human …; assay: cell-based or functional assay; remark: listed apart in the source
[3] = molecular target: T1, GPNMB (CG56972) as expressed by human …; assay: cell-based or functional assay; remark: listed apart in the source
[4] = molecular target: T1, GPNMB (CG56972) as expressed by human …; assay: cell-based or functional assay; remark: listed apart in the source
[5] = molecular target: T1, GPNMB (CG56972) as expressed by human …; assay: cell-based or functional assay; remark: listed apart in the source
[6] = molecular target: T2, Recombinant human GPNMB extra-cellular domain (ECD) with a C-terminus V5-HIS tag (human, UniProt Q14956 23-492); assay: Biacore, mAb captured on protein A
T2 construct: Expressed in HEK293; also called GPNMB-V5His; GPNMB-soluble
T2 sequence: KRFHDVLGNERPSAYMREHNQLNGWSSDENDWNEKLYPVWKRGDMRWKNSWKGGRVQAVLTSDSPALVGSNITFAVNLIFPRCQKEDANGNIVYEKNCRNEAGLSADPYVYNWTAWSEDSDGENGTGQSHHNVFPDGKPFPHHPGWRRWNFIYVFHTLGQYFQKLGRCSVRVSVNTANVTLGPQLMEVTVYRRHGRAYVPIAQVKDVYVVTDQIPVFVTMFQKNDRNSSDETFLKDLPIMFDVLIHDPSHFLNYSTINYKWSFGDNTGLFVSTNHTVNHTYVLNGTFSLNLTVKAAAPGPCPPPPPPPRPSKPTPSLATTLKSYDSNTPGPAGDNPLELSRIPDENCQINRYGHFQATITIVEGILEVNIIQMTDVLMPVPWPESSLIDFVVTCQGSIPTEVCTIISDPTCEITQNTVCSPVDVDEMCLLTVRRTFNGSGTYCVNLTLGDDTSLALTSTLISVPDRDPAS
Protocol: Certain Hybridoma cell supernatants (29) were analyzed for binding to GPNMB by BiaCore® 2000 biosensor equipped with a research-grade CM5 sensor chip. A 1:25 dilution of cell supernatant was passed over a protein A surface for 5 min followed by washing the surface for 10 mins. […] GPNMB binding data for each mAb was normalized for the amount of mAb captured on each surface. Normalized, drift corrected responses were also measured. The sensorgrams were fit to a simple 1:1 kinetic model.

[7] = molecular target: T1, GPNMB (CG56972) as expressed by human …; assay: FACS on UACC-62 cells, antibody 1 ug/mL
Protocol: The specificity of anti-GPNMB antibodies to cell membrane-bound GPNMB protein expressed by melanoma cancer cell line, UACC-62 was analyzed by FACS analysis. […] Cells were washed twice with PBS (Ca and Mg free), incubated with Versene at 37° C. until cells detached, counted and aliquoted at 1 million cells per assay tube. Cells were then washed twice and resuspended in ice-cold FACS buffer (0.01 M HEPES, 0.15M NaCl, 0.1% NaN₃ and 4% FBS). Primary antibody at 1 μg/mL was added to the cells. Cells were incubated on ice for 30 min, washed 2-3 times and resuspended in 1 mL of ice-cold FACS buffer. R-PE-conjugated goat anti-human antibody (Jackson ImmunoResearch Laboratory) at 1:100 dilution was added and cells were incubated on ice for 30 min. After washing 3 times with 1 mL of ice-cold FACS buffer, cells were fixed with 0.5-1 mL of 1% formaldehyde in PBS and analyzed by flow cytometry.

[8] = molecular target: T1, GPNMB (CG56972) as expressed by human …; assay: cell-based or functional assay; remark: listed apart in the source
[9] = molecular target: T2, Recombinant human GPNMB extra-cellular …; assay: ELISA on plates coated with recombinant GPNMB (His and V5 tagged), detection with anti-FLAG M2-HRP
Protocol: Plates were then blocked and washed. […] Plates were incubated for 1 h and washed. HRP-conjugated anti-FLAG M2 mAb (Sigma, St. Louis, Mo.) was added into the wells for 1 h, washed and the reaction developed with the TMB substrate reagent as described by the manufacturer (Pharmingen, San Jose, Calif.).

[10] = molecular target: T3, CD3 on purified human T cells (human, UniProt P07766 23-207; P04234 22-171; P09693 23-182); assay: flow cytometry on purified human T cells, mouse anti-FLAG mAb and PE-conjugated goat anti-mouse Ig F(ab')2
T3 construct: also called human CD3 molecules
T3 sequence (P07766 23-207 limits assumed, chain 1 of 3): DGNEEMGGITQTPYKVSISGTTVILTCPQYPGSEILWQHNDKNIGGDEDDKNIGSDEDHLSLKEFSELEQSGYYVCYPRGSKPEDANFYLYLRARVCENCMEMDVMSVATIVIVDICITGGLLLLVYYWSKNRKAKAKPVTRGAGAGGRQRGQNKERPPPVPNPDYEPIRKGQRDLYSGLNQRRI
T3 sequence (P04234 22-171 limits assumed, chain 2 of 3): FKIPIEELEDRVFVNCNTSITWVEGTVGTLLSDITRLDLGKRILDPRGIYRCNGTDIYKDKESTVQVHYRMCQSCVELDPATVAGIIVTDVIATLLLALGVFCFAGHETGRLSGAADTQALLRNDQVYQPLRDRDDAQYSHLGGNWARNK
T3 sequence (P09693 23-182 limits assumed, chain 3 of 3): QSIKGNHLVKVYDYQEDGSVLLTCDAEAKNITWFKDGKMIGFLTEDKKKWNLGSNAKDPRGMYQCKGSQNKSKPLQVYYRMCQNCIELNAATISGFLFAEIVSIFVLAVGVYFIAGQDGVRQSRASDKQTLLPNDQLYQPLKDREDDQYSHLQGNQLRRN

B1: CR011-vcMMAE (antibody, human IgG2)
heavy: QVQLQESGPGLVKPSQTLSLTCTVSGGSISSFNYYWSWIRHHPGKGLEWIGYIYYSGSTYSNPSLKSRVTISVDTSKNQFSLTLSSVTAADTAVYYCARGYNWNYFDYWGQGTLVTVSSASTKGPSVFPLAPCSRSTSESTAALGCLVKDYFPEPVTVSWNSGALTSGVHTFPAVLQSSGLYSLSSVVTVPSSNFGTQTYTCNVDHKPSNTKVDKTVERKCCVECPPCPAPPVAGPSVFLFPPKPKDTLMISRTPEVTCVVVDVSHEDPEVQFNWYVDGVEVHNAKTKPREEQFNSTFRVVSVLTVVHQDWLNGKEYKCKVSNKGLPAPIEKTISKTKGQPREPQVYTLPPSREEMTKNQVSLTCLVKGFYPSDIAVEWESNGQPENNYKTTPPMLDSDGSFFLYSKLTVDKSRWQQGNVFSCSVMHEALHNHYTQKSLSLSPGK
VL: not shown
modifications: vcMMAE (maleimidocaproyl-valine-citrulline-monomethylauristatin E) on cysteine thiols of reduced disulfides, about 4 per antibody; positions not given
[1]
  Clonogenic Assay with 1.15.1-AE IC50, G361: 1050 ng/mL and 6500 pM
  Clonogenic Assay with 1.15.1-AE IC50, RPMI-7951: 972 ng/mL and 6000 pM
  Clonogenic Assay with 1.15.1-AE IC50, SK-Mel 2: 111 ng/mL and 750 pM
  Clonogenic Assay with 1.15.1-AE IC50, SK-Mel 5: 237 ng/mL and 1600 pM
  Clonogenic Assay with 1.15.1-AE IC50, UACC-62: 697 ng/mL and 4300 pM
  Clonogenic Assay with 1.15.1-AE IC50, UACC-257: 825 ng/mL and 5500 pM
  Clonogenic Assay with 1.15.1-AE IC50, WM-266-4: 345 ng/mL and 2300 pM
[2]
  Clonogenic Assay with 1.15.1-AE IC50, SR: 296 ng/mL and 2000 pM
  Clonogenic Assay with 1.15.1-AE IC50, THP-1: 207 ng/mL and 1400 pM
  Clonogenic Assay with 1.15.1-AE IC50, U937: 340 ng/mL and 2400 pM
[3]
  CR011-AE IC50, clonogenic assay, SF-268 (weakly expressing): > 1.5 mg/L
  CR011-AE IC50, clonogenic assay, SF-539: 1.03 mg/L
  CR011-AE IC50, clonogenic assay, SK-MEL-2: 0.303 mg/L
  CR011-AE IC50, clonogenic assay, SNB-78: 0.449 mg/L
  CR011-AE IC50, clonogenic assay, U-118-MG: 1.25 mg/L
  CR011-AE IC50, clonogenic assay, XF-498: 0.216 mg/L
[4]
  IC50 of colony formation (clonogenic assay, % of control, 96 h) on HEK293 cells transfected with GPNMB (circles); Vector + CR011-vcMMAE (diamonds) is printed as >1000: 0.3 mg/L
[5]
  IC50 of colony formation (clonogenic assay, % of control) on SK-Mel-2 cells transfected with control siRNA (circles): 0.22 mg/L
  IC50 of colony formation (clonogenic assay, % of control) on mock-transfected SK-Mel-2 cells (diamonds): 0.33 mg/L

B2: Mab1.2.2 (antibody, IgG2, V domains shown)
VH: ITLKESGPTLVKPTQTLTLTCTFSGFSLSAGGVGVGWIRQPPGKALEWLALIYWNDDKRYSPSLRSRLTITKDTSKNQVVLTITNMDPVDTATYYCAHSHYDYDWGSYFDYWGQGTLVTVSS
VL: DIVMTQTPLSLPVTPGEPASISCRSSQSLLDSDDGNTYLDWYLQKPGQSPQLLIYTLSYRASGVPDRFSGSGSGTDFTLNISRVEAEDVGVYYCMQRIEFPITFGQGTRLEIKR
notes: Fully human hybridoma antibody (XenoMouse XMG2, IgG2 kappa); also called CR011.1.2.2
[6]
  Kd: 0.096 µM
  koff: 0.00089 s⁻¹
  kon: 9260 M⁻¹ s⁻¹
[7]
  Geo Mean Ratio (relative to pK16): 1.24 ratio

B3: Mab1.7.1 (antibody, IgG2, V domains shown)
VH: QVQLQESGPGLVKPSQTLSLTCTVSGGSISSANYYWTWIRQHPGKGLEWIGYIYYSGSTYCNPSLKSRVIISVDTSKNQFSLKLSSVTAADTAVYYCARGYNWNYFDYWGQGTLVTVSS
VL: DIVMTQSPATLSVSPGERATLSCRASQSVSSNLAWYQERPGQAPRLLIYGASTRATGIPARFSGSGSGTEFTLTISSLQSEDFAVYYCQQYNKWPPWTFGQGTKVEIER
notes: Fully human hybridoma antibody (XenoMouse XMG2, IgG2 kappa)
[6]
  Kd: 0.122 µM
  koff: 0.00144 s⁻¹
  kon: 11800 M⁻¹ s⁻¹

B4: Mab2.22.1 (antibody, IgG2, V domains shown)
VH: QVQLEQSGPGLVKPSQNLSLTCTVSGGSISSGGYFWSWIRQHPGKGLEWIGYIYYSGNTYYNPSLKSRVTISVDTSKNQFSLKLSSVTAADTAVYYCARDYYYDTSGFSYRYDWYYGMDVWGQGTTVTVSS
VL: DIQLTQSPSSLSASVGDRVTITCRASQGIRNDLGWYQQKPGKAPKRLIYAASSLQNGVPSRFSGSGSGTEFTLTISSLQPEDFATYYCLQHNTYPAFGQGTKVEIKR
notes: Fully human hybridoma antibody (XenoMouse XMG2, IgG2 kappa); also called CR011.2.22.1
[8]
  killing of UACC-62 cells with saporin-conjugated secondary antibody (colony count): > 70%
[7]
  Geo Mean Ratio (relative to pK16): 4.46 ratio

B5: Mab2.10.2 (antibody, IgG2, V domains shown)
VH: QLVESGGGVVQPGRSLRLSCAASGFAFSSYGMHWVRQAPGKGLEWVAVISYDGNNKYYADSVKGRFTISRDNSKNTLYLQMNSLRAEDTAVYYCARDLVVRGIRGYYYYFGMDVWGQGTTVTVSS
VL: not shown
notes: Fully human hybridoma antibody (XenoMouse XMG2, IgG2 kappa); also called CR011.2.10.2
[8]
  killing of UACC-62 cells with saporin-conjugated secondary antibody (colony count): > 70%
[7]
  Geo Mean Ratio (relative to pK16): 2.6 ratio

B6: Mab1.10.2 (antibody, IgG2, V domains shown)
VH: QVQLQESGPGLVKPSETLSLTCTVSGDSISNYYWSWIRQPPGKGLEWIGYFYYSGSTNYNPSLKSRVTISVDTSKNQFSLKLSSVTAADTAVYYCARDRGWADYWGQGTLVTVSS
VL: EIVLTQSPGTLSLSPGERATLSCRTSQSISSSYLAWYQQKPGQVPRLLIYGASSRATGIPDRFSGSGSGTDFTLTISRLEPEDFAVYYCQQYGSSITFGQGTRLEIKR
notes: as for B3
[6]
  Kd: 0.118 µM
  koff: 0.000466 s⁻¹
  kon: 3960 M⁻¹ s⁻¹

B7: CR011 single chain antibody (CR011 scFv), VL-L4-VH, Flag tag (scFv)
scFv: EIVMTQSPATLSVSPGERATLSCRASQSVDNNLVWYQQKPGQAPRLLIYGASTRATGIPARFSGSGSGTEFTLTISSLQSEDFAVYYCQQYNNWPPWTFGQGTKVEIKLSADDAKKDAAKKDDAKKDDAKKDLQVQLQESGPGLVKPSQTLSLTCTVSGGSISSFNYYWSWIRHHPGKGLEWIGYIYYSGSTYSNPSLKSRVTISVDTSKNQFSLTLSSVTAADTAVYYCARGYNWNYFDYWGQGTLVTVSSASDYKDDDDK
notes: also called CR011 scFv monomer; mono-specific anti-GPNMB scFv
[9]
  binding result: binds
[10]
  binding result: no binding (tested: 5 ug/sample/100 ul)
